The text below walks through data of patent US20240158521A1 (WISTAR INSTITUTE OF ANATOMY AND BIOLOGY, published 2024).

As usually defined, the IC50 is the midpoint of a concentration-inhibition curve.

The target in test [1] is T1, IL13Rα2 expressed on tumor cells (U87, U373, U251) (UniProt Q14627 27-380, limits assumed).
T1 sequence (looked up): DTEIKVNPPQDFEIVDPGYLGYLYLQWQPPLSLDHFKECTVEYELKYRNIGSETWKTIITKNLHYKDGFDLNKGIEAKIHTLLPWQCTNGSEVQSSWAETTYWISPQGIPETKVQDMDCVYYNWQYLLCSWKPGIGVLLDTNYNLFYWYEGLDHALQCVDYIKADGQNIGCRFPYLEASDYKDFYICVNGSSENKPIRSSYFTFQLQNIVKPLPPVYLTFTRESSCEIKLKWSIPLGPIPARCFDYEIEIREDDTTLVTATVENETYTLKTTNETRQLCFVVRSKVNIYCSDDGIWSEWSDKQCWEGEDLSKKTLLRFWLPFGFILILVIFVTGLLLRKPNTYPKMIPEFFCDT
In words: cell-based or functional assay.

The target in test [2] is T2, IL13Rα1 expressed on tumor cells (UniProt P78552 22-427, limits assumed).
T2 construct: whole, on cells
T2 sequence (looked up): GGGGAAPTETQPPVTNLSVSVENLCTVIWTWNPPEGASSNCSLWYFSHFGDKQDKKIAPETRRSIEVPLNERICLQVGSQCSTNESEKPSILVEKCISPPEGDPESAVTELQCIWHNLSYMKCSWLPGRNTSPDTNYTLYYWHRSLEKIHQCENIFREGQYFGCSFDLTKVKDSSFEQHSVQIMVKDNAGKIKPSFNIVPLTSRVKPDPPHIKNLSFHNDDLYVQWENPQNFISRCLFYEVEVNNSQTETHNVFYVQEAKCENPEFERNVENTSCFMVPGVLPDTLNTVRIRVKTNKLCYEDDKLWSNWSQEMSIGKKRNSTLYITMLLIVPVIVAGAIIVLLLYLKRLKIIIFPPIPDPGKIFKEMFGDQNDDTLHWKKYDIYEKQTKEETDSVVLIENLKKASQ
The experiment in a line: binding to tumor cells (method not given).

Test [3] deals with T3, recombinant IL13Rα2 (Sino biological) (UniProt Q14627 27-343, limits assumed).
T3 construct: Bought protein; construct not described
T3 sequence (looked up): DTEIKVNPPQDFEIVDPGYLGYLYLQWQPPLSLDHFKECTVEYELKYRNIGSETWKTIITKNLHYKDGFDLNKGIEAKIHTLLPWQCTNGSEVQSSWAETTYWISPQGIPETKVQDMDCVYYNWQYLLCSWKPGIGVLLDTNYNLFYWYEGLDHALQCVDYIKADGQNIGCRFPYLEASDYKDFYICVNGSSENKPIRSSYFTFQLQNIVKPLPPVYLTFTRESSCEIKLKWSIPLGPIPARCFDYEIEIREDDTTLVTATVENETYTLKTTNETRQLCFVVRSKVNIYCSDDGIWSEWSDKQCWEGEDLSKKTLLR
In words: binding ELISA, recombinant purified BTE on coated recombinant IL13Rα2. As to the method: (§1) ELISA plates were coated with either IL13Rα2/IL13Rα1 (Sino biological, […]) or CD3 (Acrobiosystems, 1 μg/ml) overnight at 4C. Blocking was performed with PBST-10% FBS for 1 hour. As primary antibody, supernatants from Expi293F cells transfected with dBTEs was used or pVax as negative control at different dilutions. The cells were incubated at room temperature for 1 hour. Secondary antibody was a goat anti-human fab fragment specific HRP conjugated (Jackson immunoresearch). After 1 hour incubation the blots were developed with TMB solution and read OD at 450 nm. To determine binding kinetics, recombinant BTEs were used at indicated concentrations as primary antibody, and HRP conjugated anti-His tag antibody (Biolegend) or goat anti-mouse fab fragment specific antibody as secondary antibody.

Test [4] concerns the target T4, recombinant IL13Rα1 (Sino biological) (UniProt P78552 22-343, limits assumed).
T4 construct: Bought protein; construct not described
T4 sequence (looked up): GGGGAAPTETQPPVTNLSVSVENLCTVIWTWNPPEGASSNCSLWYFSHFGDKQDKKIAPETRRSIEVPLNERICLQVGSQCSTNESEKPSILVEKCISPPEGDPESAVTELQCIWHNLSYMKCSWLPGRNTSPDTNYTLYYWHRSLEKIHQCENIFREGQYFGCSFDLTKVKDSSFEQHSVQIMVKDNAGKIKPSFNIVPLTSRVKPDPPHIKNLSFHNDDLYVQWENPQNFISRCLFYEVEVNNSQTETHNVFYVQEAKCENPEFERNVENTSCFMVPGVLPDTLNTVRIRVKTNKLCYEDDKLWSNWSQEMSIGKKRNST
In words: binding ELISA, plate coated with IL13Rα1, Expi293F supernatant. As to the method:
as §1
For orientation: In an ELISA, binding on a coated surface is turned into a signal by an enzyme label.

Test [5] concerns the target T5, recombinant CD3 protein (Acrobiosystems) (UniProt P07766 23-126).
T5 chain: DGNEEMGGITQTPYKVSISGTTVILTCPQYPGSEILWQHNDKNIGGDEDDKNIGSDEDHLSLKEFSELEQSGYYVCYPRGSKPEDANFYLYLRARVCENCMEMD
The experiment in a line: ELISA.

The target in test [6] is T6, recombinant IL13Rα2 (Sino biological) (UniProt Q14627 27-343).
T6 chain: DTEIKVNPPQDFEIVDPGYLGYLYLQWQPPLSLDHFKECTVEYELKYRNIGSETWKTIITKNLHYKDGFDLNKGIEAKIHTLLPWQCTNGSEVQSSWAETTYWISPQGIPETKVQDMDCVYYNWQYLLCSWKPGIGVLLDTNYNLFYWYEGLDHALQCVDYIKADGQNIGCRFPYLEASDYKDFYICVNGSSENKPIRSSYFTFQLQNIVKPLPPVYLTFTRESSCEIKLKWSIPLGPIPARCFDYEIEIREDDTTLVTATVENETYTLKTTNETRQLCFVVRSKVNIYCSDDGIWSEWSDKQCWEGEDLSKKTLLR
In words: ELISA.

B1: PB02-forward (bispecific antibody)
chain: DIQMTQSPSSLSASVGDRVTITCKASQDVGTAVAWYQQKPGKAPKLLIYSASYRSTGVPSRFSGSGSGTDFTLTISSLQPEDFATYYCQHHYSAPWTFGGGTKVEIKGGGGSGGGGSGGGGSEVQLVESGGGLVQPGGSLRLSCAASGFTFSRNGMSWVRQAPGKGLEWVATVSSGGSYIYYADSVKGRFTISRDNAKNSLYLQMNSLRAEDTAVYYCARQGTTALATRFFDVWGQGTLVTVSSGGGGSEVQLVESGGGLVQPGGSLRLSCAASGYSFTGYTMNWVRQAPGKGLEWVALINPYKGVSTYNQKFKDRFTISVDKSKNTAYLQMNSLRAEDTAVYYCARSGYYGDSDWYFDVWGQGTLVTVSSGGGGSGGGGSGGGGSDIQMTQSPSSLSASVGDRVTITCRASQDIRNYLNWYQQKPGKAPKLLIYYTSRLESGVPSRFSGSGSGTDYTLTISSLQPEDFATYYCQQGNTLPWTFGQGTKVEIKS
notes: Single-chain bispecific T cell engager, VL-VH-VH-VL format: second humanized anti-IL13Rα2 clone fused by GS linker to a modified UCHT1 anti-CD3 scFv; Tested as Expi293F supernatant and as a recombinant purified version; also called PB08-2134
On to B1, for which the “EC50 of killing of U87-GFP-Luc cells, 48h luciferase killing assay with recombinant BTE and primary human T cells” value (“EC50 of killing of U87-GFP-Luc cells” below) in test [1] is roughly 0.1 ng/mL. The binding result in test [2] and in test [4] was “no binding” in each case. Besides, the IC50 in test [3] stood at 4.2 ng/mL; in test [5], 11.2 ng/mL.

B2: PB01-forward (bispecific antibody)
chain: DIQMTQSPSSLSASVGDRVTITCTASLSVSSTYLHWYQQKPGSSPKLWIYSTSNLASGVPSRFSGSGSGTSYTLTISSLQPEDFATYYCHQYHRSPLTFGGGTKVEIKGGGGSGGGGSGGGGSEVQLVESGGGLVQPGGSLRLSCAASGFSLTKYGVHWVRQAPGKGLEWVGVKWAGGSTDYNSALMSRFTISKDNAKNSLYLQMNSLRAEDTAVYYCARDHRDAMDYWGQGTLVTVSSGGGGSEVQLVESGGGLVQPGGSLRLSCAASGYSFTGYTMNWVRQAPGKGLEWVALINPYKGVSTYNQKFKDRFTISVDKSKNTAYLQMNSLRAEDTAVYYCARSGYYGDSDWYFDVWGQGTLVTVSSGGGGSGGGGSGGGGSDIQMTQSPSSLSASVGDRVTITCRASQDIRNYLNWYQQKPGKAPKLLIYYTSRLESGVPSRFSGSGSGTDYTLTISSLQPEDFATYYCQQGNTLPWTFGQGTKVEIKS
notes: Single-chain bispecific T cell engager, VL-VH-VH-VL format: humanized anti-IL13Rα2 scFv fused by GS linker to a modified UCHT1 anti-CD3 scFv; Tested as Expi293F transfection supernatant and as a recombinant purified version, detected with anti-His tag antibody; also called PB07-2134
With B2, the “EC50 of killing of U87-GFP-Luc cells” value in test [1] is roughly 0.1 ng/mL. Moreover, in test [3], the half-maximal inhibitory concentration (IC50) turned out to be 21.2 ng/mL.

B3: PB02-reverse (bispecific antibody)
chain: EVQLVESGGGLVQPGGSLRLSCAASGFTFSRNGMSWVRQAPGKGLEWVATVSSGGSYIYYADSVKGRFTISRDNAKNSLYLQMNSLRAEDTAVYYCARQGTTALATRFFDVWGQGTLVTVSSGGGGSGGGGSGGGGSDIQMTQSPSSLSASVGDRVTITCKASQDVGTAVAWYQQKPGKAPKLLIYSASYRSTGVPSRFSGSGSGTDFTLTISSLQPEDFATYYCQHHYSAPWTFGGGTKVEIKGGGGSDIQMTQSPSSLSASVGDRVTITCRASQDIRNYLNWYQQKPGKAPKLLIYYTSRLESGVPSRFSGSGSGTDYTLTISSLQPEDFATYYCQQGNTLPWTFGQGTKVEIKSGGGGSGGGGSGGGGSEVQLVESGGGLVQPGGSLRLSCAASGYSFTGYTMNWVRQAPGKGLEWVALINPYKGVSTYNQKFKDRFTISVDKSKNTAYLQMNSLRAEDTAVYYCARSGYYGDSDWYFDVWGQGTLVTVSS
notes: Single-chain bispecific T cell engager, VH-VL-VL-VH format: second humanized anti-IL13Rα2 clone fused by GS linker to a modified UCHT1 anti-CD3 scFv; Tested as Expi293F supernatant and as a recombinant purified version; also called PB08-1243
For B3, the “EC50 of killing of U87-GFP-Luc cells” value in test [1] was roughly 0.1 ng/mL. The binding result in test [2] and in test [4] was “no binding” each time. Moreover, the values for the half-inhibitory concentration (IC50) in test [6] and in test [5] were 9.3 ng/mL and 0.41 ng/mL, respectively.

B4: PB01-reverse (bispecific antibody)
chain: EVQLVESGGGLVQPGGSLRLSCAASGFSLTKYGVHWVRQAPGKGLEWVGVKWAGGSTDYNSALMSRFTISKDNAKNSLYLQMNSLRAEDTAVYYCARDHRDAMDYWGQGTLVTVSSGGGGSGGGGSGGGGSDIQMTQSPSSLSASVGDRVTITCTASLSVSSTYLHWYQQKPGSSPKLWIYSTSNLASGVPSRFSGSGSGTSYTLTISSLQPEDFATYYCHQYHRSPLTFGGGTKVEIKGGGGSDIQMTQSPSSLSASVGDRVTITCRASQDIRNYLNWYQQKPGKAPKLLIYYTSRLESGVPSRFSGSGSGTDYTLTISSLQPEDFATYYCQQGNTLPWTFGQGTKVEIKSGGGGSGGGGSGGGGSEVQLVESGGGLVQPGGSLRLSCAASGYSFTGYTMNWVRQAPGKGLEWVALINPYKGVSTYNQKFKDRFTISVDKSKNTAYLQMNSLRAEDTAVYYCARSGYYGDSDWYFDVWGQGTLVTVSS
In the case of B4, in test [1], the “EC50 of killing of U87-GFP-Luc cells” value was roughly 0.1 ng/mL.
